Assay results reported in publication PMC10786891, “Massively parallel profiling of RNA-targeting CRISPR-Cas13d”.

T1: EsCas13d, nuclease-dead (Eubacterium siraeum, UniProt B0MS50, R295A;H300A;R849A;H854A)
T1 sequence: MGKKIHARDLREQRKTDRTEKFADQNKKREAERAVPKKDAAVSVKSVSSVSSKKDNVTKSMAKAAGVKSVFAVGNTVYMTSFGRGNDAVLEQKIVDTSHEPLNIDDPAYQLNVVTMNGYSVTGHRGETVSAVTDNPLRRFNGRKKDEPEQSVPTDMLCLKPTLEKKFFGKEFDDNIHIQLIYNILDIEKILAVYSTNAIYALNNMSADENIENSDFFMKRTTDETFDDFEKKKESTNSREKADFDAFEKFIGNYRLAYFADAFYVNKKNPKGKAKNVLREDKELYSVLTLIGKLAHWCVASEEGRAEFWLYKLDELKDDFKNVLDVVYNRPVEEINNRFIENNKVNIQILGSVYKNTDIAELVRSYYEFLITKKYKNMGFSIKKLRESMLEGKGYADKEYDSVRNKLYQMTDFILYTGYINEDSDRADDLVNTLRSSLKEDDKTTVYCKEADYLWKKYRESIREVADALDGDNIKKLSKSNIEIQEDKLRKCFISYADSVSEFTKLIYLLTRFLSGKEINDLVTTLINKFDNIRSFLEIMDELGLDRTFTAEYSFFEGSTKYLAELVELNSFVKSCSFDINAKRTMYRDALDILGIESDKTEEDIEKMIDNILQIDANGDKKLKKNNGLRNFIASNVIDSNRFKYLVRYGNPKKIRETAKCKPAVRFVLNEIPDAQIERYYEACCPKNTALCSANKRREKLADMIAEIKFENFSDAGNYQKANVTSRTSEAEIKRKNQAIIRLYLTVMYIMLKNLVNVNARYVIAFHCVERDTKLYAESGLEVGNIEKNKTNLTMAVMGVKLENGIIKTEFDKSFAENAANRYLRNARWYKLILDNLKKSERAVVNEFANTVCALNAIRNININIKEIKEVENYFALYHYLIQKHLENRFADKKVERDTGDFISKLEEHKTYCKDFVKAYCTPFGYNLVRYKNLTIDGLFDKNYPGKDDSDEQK

B1: target 1 G5U,U8C (mixed)
RNA 1: CACCCGUGCAAAAAUGCAGGGGUCUAAAACUGAGCGGAUAACCUCUCUAUGG
RNA 2: GGGAAUGGAUCCACAUCUACGAAUUCGUACCAUAGAGAGGUUACCCUCUCACCGAGAUCGGAAGAGCACACGU
B2: target 1 insG 3' of 16,insC 3' of 1 (mixed)
RNA 1: CACCCGUGCAAAAAUGCAGGGGUCUAAAACUGAGCGGAUAACCUCUCUAUGG
RNA 2: GGGAAUGGAUCCACAUCUACGAAUUCGUACCAUAGAGGAGGUUAUCCGCUCACCCGAGAUCGGAAGAGCACACGU
B3: target 1 G15U,G17C (mixed)
RNA 1: CACCCGUGCAAAAAUGCAGGGGUCUAAAACUGAGCGGAUAACCUCUCUAUGG
RNA 2: GGGAAUGGAUCCACAUCUACGAAUUCGUACCAUACAUAGGUUAUCCGCUCACCGAGAUCGGAAGAGCACACGU
B4: target 1 U11C,G12U (mixed)
RNA 1: CACCCGUGCAAAAAUGCAGGGGUCUAAAACUGAGCGGAUAACCUCUCUAUGG
RNA 2: GGGAAUGGAUCCACAUCUACGAAUUCGUACCAUAGAGAGUCUAUCCGCUCACCGAGAUCGGAAGAGCACACGU
B5: target 1 insG 3' of 16,insU 3' of 6 (mixed)
RNA 1: CACCCGUGCAAAAAUGCAGGGGUCUAAAACUGAGCGGAUAACCUCUCUAUGG
RNA 2: GGGAAUGGAUCCACAUCUACGAAUUCGUACCAUAGAGGAGGUUAUCCUGCUCACCGAGAUCGGAAGAGCACACGU
B6: target 1 insC 3' of 10,insG 3' of 6 (mixed)
RNA 1: CACCCGUGCAAAAAUGCAGGGGUCUAAAACUGAGCGGAUAACCUCUCUAUGG
RNA 2: GGGAAUGGAUCCACAUCUACGAAUUCGUACCAUAGAGAGGUUCAUCCGGCUCACCGAGAUCGGAAGAGCACACGU
B7: target 1 insC 3' of 8,insU 3' of 5 (mixed)
RNA 1: CACCCGUGCAAAAAUGCAGGGGUCUAAAACUGAGCGGAUAACCUCUCUAUGG
RNA 2: GGGAAUGGAUCCACAUCUACGAAUUCGUACCAUAGAGAGGUUAUCCCGUCUCACCGAGAUCGGAAGAGCACACGU
B8: target 1 U3G,G13C (mixed)
RNA 1: CACCCGUGCAAAAAUGCAGGGGUCUAAAACUGAGCGGAUAACCUCUCUAUGG
RNA 2: GGGAAUGGAUCCACAUCUACGAAUUCGUACCAUAGAGACGUUAUCCGCGCACCGAGAUCGGAAGAGCACACGU
B9: target 1 insG 3' of 16,insC 3' of 11 (mixed)
RNA 1: CACCCGUGCAAAAAUGCAGGGGUCUAAAACUGAGCGGAUAACCUCUCUAUGG
RNA 2: GGGAAUGGAUCCACAUCUACGAAUUCGUACCAUAGAGGAGGUCUAUCCGCUCACCGAGAUCGGAAGAGCACACGU
B10: target 1 insC 3' of 12,insA 3' of 6 (mixed)
RNA 1: CACCCGUGCAAAAAUGCAGGGGUCUAAAACUGAGCGGAUAACCUCUCUAUGG
RNA 2: GGGAAUGGAUCCACAUCUACGAAUUCGUACCAUAGAGAGGCUUAUCCAGCUCACCGAGAUCGGAAGAGCACACGU
B11: target 1 insU 3' of 14,insC 3' of 3 (mixed)
RNA 1: CACCCGUGCAAAAAUGCAGGGGUCUAAAACUGAGCGGAUAACCUCUCUAUGG
RNA 2: GGGAAUGGAUCCACAUCUACGAAUUCGUACCAUAGAGAUGGUUAUCCGCUCCACCGAGAUCGGAAGAGCACACGU
B12: target 1 U10C,C22A (mixed)
RNA 1: CACCCGUGCAAAAAUGCAGGGGUCUAAAACUGAGCGGAUAACCUCUCUAUGG
RNA 2: GGGAAUGGAUCCACAUCUACGAAUUCGUAACAUAGAGAGGUCAUCCGCUCACCGAGAUCGGAAGAGCACACGU
B13: target 1 insA 3' of 17,insC 3' of 15 (mixed)
RNA 1: CACCCGUGCAAAAAUGCAGGGGUCUAAAACUGAGCGGAUAACCUCUCUAUGG
RNA 2: GGGAAUGGAUCCACAUCUACGAAUUCGUACCAUAGAAGCAGGUUAUCCGCUCACCGAGAUCGGAAGAGCACACGU
B14: target 1 A14G,C21U (mixed)
RNA 1: CACCCGUGCAAAAAUGCAGGGGUCUAAAACUGAGCGGAUAACCUCUCUAUGG
RNA 2: GGGAAUGGAUCCACAUCUACGAAUUCGUACUAUAGAGGGGUUAUCCGCUCACCGAGAUCGGAAGAGCACACGU
B15: target 1 U11C,A16G (mixed)
RNA 1: CACCCGUGCAAAAAUGCAGGGGUCUAAAACUGAGCGGAUAACCUCUCUAUGG
RNA 2: GGGAAUGGAUCCACAUCUACGAAUUCGUACCAUAGGGAGGCUAUCCGCUCACCGAGAUCGGAAGAGCACACGU
B16: target 1 C2A,U19A (mixed)
RNA 1: CACCCGUGCAAAAAUGCAGGGGUCUAAAACUGAGCGGAUAACCUCUCUAUGG
RNA 2: GGGAAUGGAUCCACAUCUACGAAUUCGUACCAAAGAGAGGUUAUCCGCUAACCGAGAUCGGAAGAGCACACGU
B17: target 1 del15,del17 (mixed)
RNA 1: CACCCGUGCAAAAAUGCAGGGGUCUAAAACUGAGCGGAUAACCUCUCUAUGG
RNA 2: GGGAAUGGAUCCACAUCUACGAAUUCGUACCAUAAAGGUUAUCCGCUCACCGAGAUCGGAAGAGCACACGU
B18: target 1 insG 3' of 21,insA 3' of 15 (mixed)
RNA 1: CACCCGUGCAAAAAUGCAGGGGUCUAAAACUGAGCGGAUAACCUCUCUAUGG
RNA 2: GGGAAUGGAUCCACAUCUACGAAUUCGUACCGAUAGAGAAGGUUAUCCGCUCACCGAGAUCGGAAGAGCACACGU
B19: target 1 insG 3' of 21,insA 3' of 7 (mixed)
RNA 1: CACCCGUGCAAAAAUGCAGGGGUCUAAAACUGAGCGGAUAACCUCUCUAUGG
RNA 2: GGGAAUGGAUCCACAUCUACGAAUUCGUACCGAUAGAGAGGUUAUCACGCUCACCGAGAUCGGAAGAGCACACGU
B20: target 1 insG 3' of 16,insA 3' of 2 (mixed)
RNA 1: CACCCGUGCAAAAAUGCAGGGGUCUAAAACUGAGCGGAUAACCUCUCUAUGG
RNA 2: GGGAAUGGAUCCACAUCUACGAAUUCGUACCAUAGAGGAGGUUAUCCGCUCAACCGAGAUCGGAAGAGCACACGU
B21: target 1 insU 3' of 12,insA 3' of 5 (mixed)
RNA 1: CACCCGUGCAAAAAUGCAGGGGUCUAAAACUGAGCGGAUAACCUCUCUAUGG
RNA 2: GGGAAUGGAUCCACAUCUACGAAUUCGUACCAUAGAGAGGUUUAUCCGACUCACCGAGAUCGGAAGAGCACACGU
B22: target 1 insC 3' of 17,insC 3' of 9 (mixed)
RNA 1: CACCCGUGCAAAAAUGCAGGGGUCUAAAACUGAGCGGAUAACCUCUCUAUGG
RNA 2: GGGAAUGGAUCCACAUCUACGAAUUCGUACCAUAGCAGAGGUUACUCCGCUCACCGAGAUCGGAAGAGCACACGU
B23: target 1 insU 3' of 5,insC 3' of 3 (mixed)
RNA 1: CACCCGUGCAAAAAUGCAGGGGUCUAAAACUGAGCGGAUAACCUCUCUAUGG
RNA 2: GGGAAUGGAUCCACAUCUACGAAUUCGUACCAUAGAGAGGUUAUCCGUCUCCACCGAGAUCGGAAGAGCACACGU
B24: target 1 G5A,U10G (mixed)
RNA 1: CACCCGUGCAAAAAUGCAGGGGUCUAAAACUGAGCGGAUAACCUCUCUAUGG
RNA 2: GGGAAUGGAUCCACAUCUACGAAUUCGUACCAUAGAGAGGUGAUCCACUCACCGAGAUCGGAAGAGCACACGU
B25: target 1 insU 3' of 15,insC 3' of 12 (mixed)
RNA 1: CACCCGUGCAAAAAUGCAGGGGUCUAAAACUGAGCGGAUAACCUCUCUAUGG
RNA 2: GGGAAUGGAUCCACAUCUACGAAUUCGUACCAUAGAGUAGGCUUAUCCGCUCACCGAGAUCGGAAGAGCACACGU
B26: target 1 G13U,A14U (mixed)
RNA 1: CACCCGUGCAAAAAUGCAGGGGUCUAAAACUGAGCGGAUAACCUCUCUAUGG
RNA 2: GGGAAUGGAUCCACAUCUACGAAUUCGUACCAUAGAGUUGUUAUCCGCUCACCGAGAUCGGAAGAGCACACGU
B27: target 1 insG 3' of 16,insG 3' of 1 (mixed)
RNA 1: CACCCGUGCAAAAAUGCAGGGGUCUAAAACUGAGCGGAUAACCUCUCUAUGG
RNA 2: GGGAAUGGAUCCACAUCUACGAAUUCGUACCAUAGAGGAGGUUAUCCGCUCAGCCGAGAUCGGAAGAGCACACGU
B28: target 1 insU 3' of 22,insU 3' of 1 (mixed)
RNA 1: CACCCGUGCAAAAAUGCAGGGGUCUAAAACUGAGCGGAUAACCUCUCUAUGG
RNA 2: GGGAAUGGAUCCACAUCUACGAAUUCGUACUCAUAGAGAGGUUAUCCGCUCAUCCGAGAUCGGAAGAGCACACGU

biological target: T1, EsCas13d, nuclease-dead; test: crRNA (strand 1, pre-loaded); Mg2+; 40 mM Tris-HCl pH 7.5, 150 mM NaCl, 6 mM MgCl2, 1 mM DTT, 0.1% Tween-20, 0.2 mg/ml BSA; 25 C; 10 min per concentration, then washed; details: tags: His6-TwinStrep-SUMO cleaved; N-terminal SNAP kept (SNAP-Surface 488); label: 3' end held by stalled T7 RNA polymerase

Q: Which Kd does the source give for B1 here?
A: 57 ± 12 nM

Q: For B2, which Kd is on record?
A: 11.9 ± 1.1 nM

Q: How did the Kd turn out when B3 was run?
A: 34.6 ± 3 nM

Q: Which Kd does the source give for B4 here?
A: 10.2 ± 0.5 nM

Q: B5 was tested. Which Kd did it give?
A: 21 ± 1 nM

Q: How did the Kd turn out when B6 was run?
A: 18.8 ± 2.1 nM

Q: For B7, which Kd is on record?
A: 16.1 ± 1.2 nM

Q: For B8, which Kd is on record?
A: 30.3 ± 2.3 nM

Q: How did the Kd turn out when B9 was run?
A: 46 ± 11 nM

Q: B10 was tested. Which Kd did it give?
A: 11.1 ± 0.5 nM

Q: B11 was tested. Which Kd did it give?
A: 80 ± 40 nM

Q: B12 was tested. Which Kd did it give?
A: 35.5 ± 2 nM

Q: With B13 as the binder, how does the Kd read?
A: 12.5 ± 1.4 nM

Q: B14 was tested. Which Kd did it give?
A: 6.9 ± 0.4 nM

Q: For B15, which Kd is on record?
A: 80 ± 8 nM

Q: With B16 as the binder, how does the Kd read?
A: 32.7 ± 3.3 nM

Q: With B17 as the binder, how does the Kd read?
A: 90 ± 40 nM

Q: Which Kd does the source give for B18 here?
A: 37 ± 6 nM

Q: How did the Kd turn out when B19 was run?
A: 46 ± 5 nM

Q: B20 was tested. Which Kd did it give?
A: 14.3 ± 0.9 nM

Q: With B21 as the binder, how does the Kd read?
A: 4.32 ± 0.35 nM

Q: Which Kd does the source give for B22 here?
A: 58 ± 13 nM

Q: Which Kd does the source give for B23 here?
A: 38 ± 6 nM

Q: B24 was tested. Which Kd did it give?
A: 35 ± 4 nM

Q: B25 was tested. Which Kd did it give?
A: 35 ± 8 nM

Q: With B26 as the binder, how does the Kd read?
A: 8.2 ± 0.4 nM

Q: For B27, which Kd is on record?
A: 13 ± 0.8 nM

Q: B28 was tested. Which Kd did it give?
A: 37 ± 6 nM
